Laboratory results from paper PMC7943553, “Naturally acquired blocking human monoclonal antibodies to Plasmodiumvivax reticulocyte binding protein 2b” (Nature Communications, 2021).
Residue numbers refer to the chain shown, from its start.

B1: P. vivax Reticulocyte Binding Protein 2b, residues 161–1454 (domain or fragment, P. vivax strain Salvador I, UniProt A5K736 161-1454, looked up)
chain: PSPESTQITNTTDNIDYFDISDESNYYLISQLRPHFSNIYFFDEFKRYASYHTEIKRYEDIHKTKVNSLLNEASRAIGICNRAKNTVKGLINILENPQKFKTQRESYDVKLRQYEEKKEAFRGCLLNKNRKNLDQIKKINNEIRDLLEKLKCSQDCQTNVYFDMIKIYLVDFKKMPYENYDTFIKQYKNSYLSGVDMIRKIEKQIDNPVTINAIKFTQKEMGYIIDRFEYHLQKVKHSIDQVTALSDGVKPKQVTKNRLKEYYFNIGNYYSIFKFGKDSLNMLNKALIHKEKIVHNLLGELFGHLEERISKLIDSEYFITESNNIISQSEETLKLAEDVYDKNTKLIEDLTLYPHLEINEFKKDYDNNVEDLRESIIYIQSYVSSIKSAYRYNVLEKDSVESKQKNIPANSNAQKKVDELLSIIDSISYSNFSVAENFQKMKDYYKEIEKLKIKILQLIEAIKKYQQHVEELINKEKAVAILKEDINKIIEYIKGIIEKLKQLISANKDFDKIFQQVEQLINEALFNKDQFEHNKNDLHTKMKEIMHTFHERDLQQFLDNMSKFLKDQEASYQNADSKEKLDQLLTTVKAKQDELKEMKCDDIPDIIDNLKKESQNVLNLKDEVINKQFENMRTEMSSSLDQMTKEYNALKSSIEEYEAEKKGIENHKQNIIKRKNTFIVAEHENDEDVPEGKNTYNEFISNKDTILQKESAISNQMNTLEEKKRNRKTTLQTYGDAIQKLETYTEKKDEETKVLLDKFNTEVENFKLDEDEKSFNDAKSIVSNTINEVENENKNIDSIKKVNIAMKRSRSNQQSVEQLIRNKDNLLKEKMEKHFQKINTDEIIGQSAKANLLNNLESEKAIINEQLNDAHLNDLKLQIEKTLSYCEKSRENIKGNNGTHPEELNASEIEWEATKGKIETLNSNYQALNKNMDDIINKQHDEMIVLIDRDIKEKGKDIELKVEQRIQALEKMKAKLSSFDTNEDVKKYQSDINKEELIKLKEMSTAVLNKIDQNKNQLINVKTKSSGYVAESNGIKNKQTEPSQEKDKQIVYNTNRGDIEKVYKNIRDMYNELDDVEKEETTSNEVDNIEMQYDRLLINLLVQKINEENTKAKGLMEEIKSYIENIESVQAKMSDETREGATEFEFNQYQQSSLANDKKITEIVQHAINKKGEAERSKKTNEVKSIKNDVNTYMQQVIDEYNAMQKALGDIKNVNDLLISTSGRRIAEEISKSTNEAENFEKQAKGELGKINDIIEKMENQMVQAKEHENKIHINLEDKQIDEEVQKIRQIHEE
modifications: DyLight 488 (NHS ester) in the FRET assay; biotin (BirA site) in the competition ELISA between human mAbs
notes: PvRBP2b, P. vivax strain Salvador I, PlasmoDB PVX_094255 (total length 2806 amino acids), residues 161-1454; also called PvRBP2b_(161–1454); PvRBP2b; source: recombinant; expressed and purified in a similar manner as PvRBP2b161–470 (E. coli SHuffle T7; HisTrap, Q-Sepharose, size exclusion) or as previously described
B2: PvRBP2b human mAb 241242 (antibody, V domains shown)
VH: EVQLLESGGGLVQPGGSLRLSCAVSGFTFRNYALSWVRQAPGKGLDWVSTISASGGATYYADSVKGHFTISRDNSKNILYLDMKSLRAEDTAIYYCARDGGSYTPYFFLDSWGQGALVTVSS
VL: SYELTQPASVSVAPGQTAQITCGGNSIGRKSIHWYQHKPGQAPVLVISYDSDRPSGIPERFSGSNSGNTATLTISKVEAGDEADFYCQVRDSDNDHVVFGGGTKLTVL
notes: variable region as the Fab heavy chain in PDB 6WN1; cloned into a human IgG1 backbone, full-length antibody; lambda light chain; as the Fab light chain in PDB 6WN1; IgG1; also called 241424 [sic]; source: Expi293 HEK cells, transfected, purified (Protein A, gel filtration)
B3: PvRBP2b human mAb 243244 (antibody, V domains shown)
VH: QVQLVESGGGVVQSGKSLRVSCAASGFTFSSYGMHWVRQAPGKGLEWVAFISYDGDNKYSADSVKGRLTISRDNSKNTLYLQMNSLRPEDTAVYYCAKESNYGENAFDIWGQGTMVTVSS
VL: QSALTQPRSVSGSPGQSVTISCTGTSSDVGFYNFVSWYQHHPGKAPKLIIYDVSERPSGVPDRFSGSKSGNTASLSISGLQPEDEADYYCCSYAGTYTFVFGSGTKVTVL
notes: variable region as the Fab heavy chain in PDB 6WNO; cloned into a human IgG1 backbone, full-length antibody; lambda light chain; as the Fab light chain in PDB 6WNO; IgG1; same clonal group as 237235; source: Expi293 HEK cells, transfected, purified (Protein A, gel filtration)
B4: PvRBP2b human mAb 237235 (antibody, V domains shown)
VH: QVQLVESGGGVVQPGRSLRLSCAASGFMFNSYGMHWVRQAPGKGLEWMAFISYDGSDDYYGDSVKGRITISRDNSKNTLFLHINSLRTEDTAVYYCAKESNYGENAFDVWGHGTMVTVSS
VL: B3 VL with S27N, I49M, S54T, S76T, P82A, D87E, S103H
notes: variable region as the Fab heavy chain in PDB 6WM9; cloned into a human IgG1 backbone, full-length antibody; lambda light chain; as the Fab light chain in PDB 6WM9; IgG1; same clonal group as 243244; source: Expi293 HEK cells, transfected, purified (Protein A, gel filtration)
B5: PvRBP2b human mAb 283284 (antibody, V domains shown)
VH: QVQLQQWGAGLLKPSETLALTCTVYGGSSSGYYWNWIRQSPGKGLEWIGEISDSGSTIYNPSLESRVTMSVDTSKNQFSLKLTSVTAADTAVYYCAKAILTRYNWLDPWSQGTLVTVSS
VL: DIVMTQSPSSLSASVGDRISISCRASQGVNSALAWYQQKPGKAPKLLIYDASTLESGVPSRFSGSGSGTDFALTINSLQPEDFATYYCQQFNSYPLTFGGGTKVEIK
notes: variable region as the Fab heavy chain in PDB 6WQO; cloned into a human IgG1 backbone, full-length antibody; kappa light chain; as the Fab light chain in PDB 6WQO; IgG1; source: Expi293 HEK cells, transfected, purified (Protein A, gel filtration)
B6: PvRBP2b human mAb 258259 (antibody, V domains shown)
VH: EVQLLESGGGLVRPGGSQRLSCAASGFTFTPYAMTWVRQAPGKGLEWLSTISGSGGSTYYADSVKGRFTISRDNSKNMLYLQMNSLTAEDTALYYCTKDKDEYTFGHNAFDVWGQGTMVTVSS
VL: SYELTQAPSVSVAPGQTARITCGGDNIGRKTVNWYQQKPGQAPVLVIYYDNDRPSGIPERFSGSNSGNMATLSISRVEVGDEADYYCQVWDSNNDHPVFGGGTKLTVV
notes: variable region as the Fab heavy chain in PDB 6WTV; cloned into a human IgG1 backbone, full-length antibody; lambda light chain; as the Fab light chain in PDB 6WTV; IgG1; same clonal group as 273264; source: Expi293 HEK cells, transfected, purified (Protein A, gel filtration)
B7: PvRBP2b human mAb 273264 (antibody, V domains shown)
VH: B6 VH with Y59S, M78I, N84D, T87R, Q115R
VL: B6 VL with K30T, T31S, N33H, Y48F
notes: variable region as the Fab heavy chain in PDB 6WTU; cloned into a human IgG1 backbone, full-length antibody; lambda light chain; as the Fab light chain in PDB 6WTU; IgG1; same clonal group as 258259; source: Expi293 HEK cells, transfected, purified (Protein A, gel filtration)
B8: PvRBP2b human mAb 251249 (antibody, V domains shown)
VH: EVQLVESGGGLVKPGGSLRLSCEASGFLFSSYSMNWVRQAPGKGLEWVSSITGYSSEVFYTDSVKGRFTVSRDNSKNSLYLQMDSLRAEDTAVYYCARALTIFGVVITDYWFFDLWGRGTLVTVSS
VL: EIVLTQSPATLSLSPGDRATLSCRASQSVTTFLAWYQQKPGQAPRLLIYDVSNRATGIPARFSGSGSGTDFTLTISSLEPEDFAVYYCQQRSNWGLTFGGGTKVEIK
notes: variable region as the Fab heavy chain in PDB 6WOZ; cloned into a human IgG1 backbone, full-length antibody; kappa light chain; as the Fab light chain in PDB 6WOZ; IgG1; source: Expi293 HEK cells, transfected, purified (Protein A, gel filtration)
B9: PvRBP2b human mAb 253245 (antibody, V domains shown)
VH: EVQLVQSGAEVKKPGSSMKVSCKASGGTFNRYVFSWVRQAPGQGLEWMGGILPILETTYYAKNFKGRVTITADESTSTVYMELSSLTSEDTAVYFCARDEHDYVWGSYRPSLTGPWGQGTLVTVSS
VL: QSALTQPPSTSGSPGQSVTISCTGTGIDVGGFSYVSWFQYHPGKAPKLIIFEVTKRPSGVPDRFSGSKSGNTASLTISGLQADDEAEYYCSSYAVNNNFVFGTGTKVTVL
notes: variable region as the Fab heavy chain in PDB 6WTY; cloned into a human IgG1 backbone, full-length antibody; lambda light chain; as the Fab light chain in PDB 6WTY; IgG1; source: Expi293 HEK cells, transfected, purified (Protein A, gel filtration)

How the values were obtained:
Details in all cases: both partners purified
[1] = molecular target: T1, human Transferrin receptor 1 – Transferrin (human, UniProt P02786 121-760; P02787 20-698, DyLight 594 (NHS ester) in the FRET assay); experiment: FRET or BRET; PvRBP2b161–1454-DL488, TfR1-DL594 and Tf at 1:1:1 molar ratio, 5-fold excess of human mAbs; 50 mM Tris-HCl pH 6.8, 150 mM NaCl, 0.01% BSA
T1 construct: soluble ectodomain of human transferrin receptor 1, residues 121-760; follows the GP67 leader peptide, a 6xHis-tag and a factor Xa site; transferrin purified from human serum (apo-transferrin), loaded with iron to holo-transferrin; TfR1 and Tf were mixed with PvRBP2b in equal amounts in the assays; also called TfR1–Tf; TfR1 and Tf; copies: 2 + 2
T1 sequence (P02786 121-760, chain 1 of 2): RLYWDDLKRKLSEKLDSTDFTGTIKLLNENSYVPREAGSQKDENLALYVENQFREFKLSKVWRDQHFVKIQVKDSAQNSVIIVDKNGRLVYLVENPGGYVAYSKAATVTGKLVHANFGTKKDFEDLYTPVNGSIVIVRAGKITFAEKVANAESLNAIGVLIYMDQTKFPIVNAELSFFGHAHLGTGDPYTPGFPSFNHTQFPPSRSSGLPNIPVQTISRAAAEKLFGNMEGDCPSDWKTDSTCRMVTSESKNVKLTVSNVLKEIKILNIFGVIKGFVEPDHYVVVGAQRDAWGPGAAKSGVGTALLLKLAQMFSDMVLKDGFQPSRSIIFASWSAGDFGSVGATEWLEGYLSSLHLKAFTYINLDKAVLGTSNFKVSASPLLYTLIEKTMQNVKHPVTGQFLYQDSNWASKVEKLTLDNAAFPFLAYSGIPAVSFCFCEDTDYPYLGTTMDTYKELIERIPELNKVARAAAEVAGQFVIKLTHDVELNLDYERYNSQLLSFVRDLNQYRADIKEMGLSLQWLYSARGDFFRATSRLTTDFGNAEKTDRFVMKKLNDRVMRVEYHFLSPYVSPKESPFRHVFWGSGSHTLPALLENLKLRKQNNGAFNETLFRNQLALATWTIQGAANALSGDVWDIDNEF
T1 sequence (P02787 20-698, chain 2 of 2): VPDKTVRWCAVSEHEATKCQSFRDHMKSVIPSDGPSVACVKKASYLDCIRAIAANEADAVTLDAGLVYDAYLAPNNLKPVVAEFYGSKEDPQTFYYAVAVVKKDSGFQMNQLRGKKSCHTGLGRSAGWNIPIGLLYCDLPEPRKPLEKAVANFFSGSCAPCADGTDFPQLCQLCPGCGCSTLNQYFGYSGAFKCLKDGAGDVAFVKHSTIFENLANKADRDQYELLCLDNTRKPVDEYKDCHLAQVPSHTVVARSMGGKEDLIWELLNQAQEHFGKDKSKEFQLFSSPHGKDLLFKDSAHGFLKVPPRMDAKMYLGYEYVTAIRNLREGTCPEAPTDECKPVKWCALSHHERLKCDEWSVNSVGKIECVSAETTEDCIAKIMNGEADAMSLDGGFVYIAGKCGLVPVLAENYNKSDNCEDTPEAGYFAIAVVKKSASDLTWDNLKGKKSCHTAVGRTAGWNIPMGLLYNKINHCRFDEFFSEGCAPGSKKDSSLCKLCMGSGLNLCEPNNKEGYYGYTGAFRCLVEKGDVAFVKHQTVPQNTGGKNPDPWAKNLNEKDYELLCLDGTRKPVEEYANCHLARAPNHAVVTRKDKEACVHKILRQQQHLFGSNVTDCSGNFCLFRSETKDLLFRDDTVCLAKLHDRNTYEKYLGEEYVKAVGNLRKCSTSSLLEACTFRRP

[2] = molecular target: T2, P. vivax Reticulocyte Binding Protein 2b, residues 161–1454 (P. vivax strain Salvador I, UniProt A5K736, DyLight 488 (NHS ester) in the FRET assay; biotin (BirA site) in the competition ELISA between human mAbs); experiment: as above
T2 construct: PvRBP2b, P. vivax strain Salvador I, PlasmoDB PVX_094255 (total length 2806 amino acids), residues 161-1454; also called PvRBP2b_(161–1454); PvRBP2b; source: recombinant; expressed and purified in a similar manner as PvRBP2b161–470 (E. coli SHuffle T7; HisTrap, Q-Sepharose, size exclusion) or as previously described

[3] = molecular target: T2, P. vivax Reticulocyte Binding Protein …; experiment: ELISA; avidity ELISA: plates coated with 50 ng PvRBP2b161–1454; human mAbs at 0.2 µg/mL; then PBS, 0.5, 1 or 2 M NH4SCN for 20 min; binding relative to no NH4SCN
[4] = molecular target: T2, P. vivax Reticulocyte Binding Protein …; experiment: ELISA; plates coated with 65 nM recombinant protein in PBS at 4 °C overnight; human mAbs at 1 μg/mL, 1 h room temperature; HRP anti-human secondary; specificity panel and PvRBP2b fragments
[5] = molecular target: T2, P. vivax Reticulocyte Binding Protein …; experiment: flow cytometry on cells; PvRBP2b161–1454 at 4 μg/mL with human mAbs at 5-fold molar excess and reticulocytes, 1 h room temperature; inhibition relative to no mAb

Binder | binding result [1] | percent decrease in FRET signal of PvRBP2b161–1454 with TfR1–Tf [2] [%] | percent binding left at 1 M NH4SCN [3] [%] | percent binding left at 2 M NH4SCN [3] [%] | fold signal over control mAbs 099100 and 043038 [4] [fold] | percent inhibition of PvRBP2b161–1454 binding to reticulocytes [5] [%]
B1 | binds | – | – | – | – | –
B2 | – | > 70 | > 75 | < 75 | > 20 | > 98
B3 | – | – | – | > 75 | > 20 | 43
B4 | – | – | – | > 75 | > 20 | 47
B5 | – | – | < 75 | – | > 20 | –
B6 | – | > 70 | < 75 | – | > 20 | > 98
B7 | – | > 70 | < 75 | – | > 20 | > 98
B8 | – | – | < 75 | – | > 20 | 59
B9 | – | > 70 | > 75 | < 75 | > 20 | > 98
